Target: FZD7 class proteins
Experiment: ELISA of biotinylated Wnt binding to FZD CRD-Fc with or without peptide

fold enhancement of binding by Fz7-21 or dFz7-21: 1.5 to 2 fold
B1: Biotinylated Wnt5a (ligand)
chain: IIGAQPLCSQLAGLSQGQKKLCHLYQDHMQYIGEGAKTGIKECQYQFRHRRWNCSTVDNTSVFGRVMQIGSRETAFTYAVSAAGVVNAMSRACREGELSTCGCSRAARPKDLPRDWLWGGCGDNIDYGYRFAKEFVDARERERIHAKGSYESARILMNLHNNEAGRRTVYNLADVACKCHGVSGSCSLKTCWLQLADFRKVGDALKEKYDSAAAMRLNSRGKLVQVNSRFNSPTTQDLVYIDPSPDYCVRNESTGSLGTQGRLCNKTSEGMDGCELMCCGRGYDQFKTVQTERCHCKFHWCCYVKCKKCTEIVDQFVCK
modifications: Biotinylated with the Pierce reagent cat no. 21338; the positions are not stated and the letters are unchanged. The lipid modification of Wnt (fatty acyl moiety) is not carried by the letters.

— US20190359653A1, “SELECTIVE PEPTIDE INHIBITORS OF FRIZZLED” (Genentech, Inc., priority 2016, published 2019)
